{"source": "paper PMC3114466", "origin": "cited, not measured here", "test_system": "His", "settings": "free model compound in solution (inferred)", "note": "Several values for one entry are separate records, joined by “and”; a condition that tells them apart may be missing. Identical values can stand only once."}
{"substance": "Capped histidine model compound (acetyl-histidine-methylamide) (synthetic)", "values": [{"measurement": "pKa", "result": "6.42 and 6.92 and 6.53"}]}
